Residue numbers refer to the chain shown, from its start.
T1: MBP-CHMP4B(23-97) (UniProt Q9H444 23-97)
T1 sequence (looked up): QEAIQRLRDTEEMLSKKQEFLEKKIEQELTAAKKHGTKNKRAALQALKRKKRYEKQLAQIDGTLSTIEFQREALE

T2: CHMP4B(23-97), MBP removed (UniProt Q9H444)
T2 sequence (Q9H444 23-97, species assumed, looked up): T1 sequence (looked up)

T3: CC2D1B(1-601) (UniProt Q5T0F9 1-601)
T3 sequence (looked up): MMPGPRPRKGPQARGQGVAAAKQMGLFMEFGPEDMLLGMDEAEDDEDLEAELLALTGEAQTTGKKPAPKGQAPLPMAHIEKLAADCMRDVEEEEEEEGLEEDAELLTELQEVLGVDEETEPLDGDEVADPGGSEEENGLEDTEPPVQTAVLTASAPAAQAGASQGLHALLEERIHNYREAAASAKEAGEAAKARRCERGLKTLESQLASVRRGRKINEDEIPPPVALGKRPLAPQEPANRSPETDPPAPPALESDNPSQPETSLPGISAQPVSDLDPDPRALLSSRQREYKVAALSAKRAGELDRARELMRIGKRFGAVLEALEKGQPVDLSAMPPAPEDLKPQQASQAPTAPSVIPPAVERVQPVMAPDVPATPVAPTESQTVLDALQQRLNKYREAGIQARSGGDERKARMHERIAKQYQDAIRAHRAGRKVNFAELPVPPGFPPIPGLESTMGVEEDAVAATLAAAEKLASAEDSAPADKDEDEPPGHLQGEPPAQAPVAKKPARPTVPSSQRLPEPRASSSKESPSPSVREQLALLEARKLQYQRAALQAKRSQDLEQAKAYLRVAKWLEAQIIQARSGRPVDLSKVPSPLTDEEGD

B1: CC2D1A(346-455) (domain or fragment, human, UniProt Q6P1N0 346-455, looked up)
chain: RTLLEALEQRMERYQVAAAQAKSKGDQRKARMHERIVKQYQDAIRAHKAGRAVDVAELPVPPGFPPIQGLEATKPTQQSLVGVLETAMKLANQDEGPEDEEDEVPKKQNS
B2: CHMP4B(7-110), MBP removed (domain or fragment, UniProt Q9H444 7-110, looked up)
chain: LFGAGGGKAGKGGPTPQEAIQRLRDTEEMLSKKQEFLEKKIEQELTAAKKHGTKNKRAALQALKRKKRYEKQLAQIDGTLSTIEFQREALENANTNTEVLKNMG
B3: MBP-CHMP4B(7-110) (domain or fragment, UniProt Q9H444 7-110, looked up)
chain: B2 chain
B4: CC2D1A(309-494) (domain or fragment, human, UniProt Q6P1N0 309-494, looked up)
chain: SCLPPPPDQLPPDPPSPPSQPPTPATAPSTTEVPPPPRTLLEALEQRMERYQVAAAQAKSKGDQRKARMHERIVKQYQDAIRAHKAGRAVDVAELPVPPGFPPIQGLEATKPTQQSLVGVLETAMKLANQDEGPEDEEDEVPKKQNSPVAPTAQPKAPPSRTPQSGSAPTAKAPPKATSTRAQQQL
B5: CC2D1A(346-494) (domain or fragment, human, UniProt Q6P1N0 346-494, looked up)
chain: RTLLEALEQRMERYQVAAAQAKSKGDQRKARMHERIVKQYQDAIRAHKAGRAVDVAELPVPPGFPPIQGLEATKPTQQSLVGVLETAMKLANQDEGPEDEEDEVPKKQNSPVAPTAQPKAPPSRTPQSGSAPTAKAPPKATSTRAQQQL
B6: MBP-CHMP4B(7-105) (domain or fragment, UniProt Q9H444 7-105, looked up)
chain: LFGAGGGKAGKGGPTPQEAIQRLRDTEEMLSKKQEFLEKKIEQELTAAKKHGTKNKRAALQALKRKKRYEKQLAQIDGTLSTIEFQREALENANTNTEV
B7: MBP-CHMP4B(7-105)_(mut1) (domain or fragment, UniProt Q9H444 7-105, looked up)
chain: B6 chain with R22A, R24A, D25R, E27R

What was measured:
MBP-CHMP4B(7-110) = target: B3; test: ITC
MBP-CHMP4B(23-97) = target: T1, MBP-CHMP4B(23-97); test: ITC
[1] = target: T2, CHMP4B(23-97), MBP removed; test: SEC-MALS
CC2D1B(1-601) [2] = target: T3, CC2D1B(1-601); test: SEC-MALS
CC2D1B(1-601) [3] = target: T3, CC2D1B(1-601); test: ITC
CC2D1A(346-455) = target: B1; test: SPR

## B1
MBP-CHMP4B(7-110)
  dH: -8190 kcal/mol
  stoichiometry N: 0.9
MBP-CHMP4B(23-97)
  dH: -14600 kcal/mol
  stoichiometry N: 0.9
[1]
  stoichiometry N: 1

## B2
CC2D1B(1-601) [2]
  stoichiometry N: 1

## B3
CC2D1B(1-601) [3]
  dH: -13700 kcal/mol
  stoichiometry N: 1.02

## B4
MBP-CHMP4B(7-110)
  dH: -7380 kcal/mol
  stoichiometry N: 0.84

## B5
MBP-CHMP4B(7-110)
  dH: -8160 kcal/mol
  stoichiometry N: 1.03

## B6
CC2D1A(346-455)
  koff: 0.0079 s⁻¹
  kon: 25000 M⁻¹ s⁻¹

## B7
CC2D1A(346-455)
  koff: 0.0017 s⁻¹
  kon: 1200 M⁻¹ s⁻¹
